Data on 2 molecules can be found in US20160289280A1, “Fusion protein of recombinant ganoderma immunoregulatory protein and human serum albumin, preparation method thereof, and application thereof” (priority 2013, published 2016).

Assay [1] concerns mouse transplanted tumor S180. Nature of the assay: subcutaneous inhibition of mouse transplanted tumor S180. The class given is in vivo. As to conditions: tail vein, 10 days. How it is done: In vivo experiment: experimental material: mice weighing 18-22 g from Laboratory Animal Center of Jilin University; Ehrlich ascites tumor cell strains are provided by a lab of the inventor; cytoxan (CTX) is from Jiangsu Hengrui Medicine Co., Ltd, whose batch number is 06101921; 5180 ascites tumor and soild tumor experimental groups respectively comprises a normal control group, a negative control group, a positive control group, an rLZ-8 low-dosage group (0.25 mg·kg^−1), an rLZ-8 middle-dosage group (0.5 mg·kg^−1), an rLZ-8 high-dosage group (1 mg·kg^−1), an rLZ-8-HSA low-dosage group (0.25 mg·kg^−1), an rLZ-8-HSA middle-dosage group (0.5 mg·kg^−1), and an rLZ-8-HSA high-dosage group (1 mg·kg^−1), wherein dosages of the rLZ-8-HSA groups are judged from LZ-8 dosage, wherein each group comprises 10 mice.
tumor inhibition rate (%)=(average tumor weight of control groups−average tumor weight of experimental groups)/average tumor weight of control groups×100%.

In assay [2] the test system is mouse S180 Ehrlich ascites tumor. Nature of the assay: in vitro inhibition effect on mouse S180 Ehrlich ascites tumor, WST-1 method. The class given is cell-based. The settings on record: 24 h, x ± s, n = 9. Here is the method: In vitro experiment: testing the inhibition effect of the fusion protein rLZ-8-HSA on the mouse 5180 Ehrlich ascites tumor through the WST-1 method, preparing tissue suspension of the mouse S180 Ehrlich ascites tumor; adding 100 μl the tissue suspension into 900 μl 2% glacial acetic acid and counting with a microscope; adjusting a tissue concentration to 2×10^5/ml with DMEM comprising 2% calf serum; respectively preparing the fusion protein rLZ-8-HSA and the rLZ-8 with same molar concentration gradient, wherein there are 3 gradient concentrations, each concentration occupies 9 wells with 100 μl per well; adding tissue suspension with a concentration of 2×10^5/ml with 100 μl per well; shaking for evenly mixing, and then putting into a 37° C., 5% CO2 incubation device to incubate for 24 h; after incubation, adding WST-1 with 20 μl per well; putting into the 37° C., 5% CO2 incubation device to incubate for 3 h, then testing OD450 (with a BIO-RAD); wherein results are listed in table 5.

Setting [3] is: low-dosage 0.25 mg·kg^−1 (LZ-8).
[4] abbreviates: middle-dosage 0.5 mg·kg^−1 (LZ-8).

“And” between values parts separate entries of the source, which are not always exact repeats. Equal values may be shown once.

B1: rLZ-8-HSA: fusion protein of ganoderma immunoregulatory protein (LZ-8) and human serum albumin, linker GGGGSS, SEQ ID NO. 1 (protein)
chain: SDTALIFRLAWDVKKLSFDYTPNWGRGNPNNFIDTVTFPKVLTDKAYTYRVAVSGRNLGVKPSYAVESDGSGKVNFLEYNSGYGIADTNTIGVFVVDPDTNNDFIIAGWNGGGGSSMKWVTFISLLFLFSSAYSRGVFRRDAHKSEVAHRFKDLGEENFKALVLIAFAGYLGGCPFEDHVKLVNEVTEFAKTCVADESAENCDKSLHTLFGDKLCTVATLRETYGEMADCCAKGEPERNECFLGHKDDNPNLPRLVRPEVDVMCTAFHDNEETFLKKYLYEIARRHPYFYAPELLFFAKRYKAAFTECCGAADKAACLLPKLDELRDEGKASSAKGRLKCASLGKFGERAFKAWAVARLSGRFPKAEFAEVSKLVTDLTKVHTECCHGDLLECADDRADLAKYICENGDSISSKLKECCEKPLLEKSHCIAEVENDEMPADLPSLAADFVESKDVCKNYAEAKDVFLGMFLYEYARRHPDYSVVLLLRLAKTYETTLEKCCAAADPHECYAKVFDEFKPLVEEPGNLIKGNCELFEGLGEYKFGNALLVRYTKKVPGVSTPTLVEVSRNLGKVGSKCCKHPEAKRMPCAEDYLSVVLNGLCVLHEKTPVSDRVTKCCTESLVNRRPCFSALEVDETYVPKEFNAETFTFHADICTLSEKERGIKKGTALVELVKHKPKATKEGLKAVMDDFAAFVEKCCKADDKETCFAEEGKKLVAASGAALGL
modifications: rLZ-8-HSA sequence
As for B1, the Inhibition rate came to 29.3% in assay [1] (high-dosage 1 mg·kg^−1 (LZ-8)), 27.7% in assay [1] (setting [3]) and 56.4% in assay [1] (setting [4]). The tumor weight was 0.21 ± 0.08 g in assay [1] (high-dosage 1 mg·kg^−1 (LZ-8)), 0.73 ± 0.03 g in assay [1] (setting [3]) and 0.44 ± 0.05 g in assay [1] (setting [4]). Moreover, the “OD450, inhibition effect on mouse S180 Ehrlich ascites tumor” value came out at 0.408 ± 0.21 in assay [2] (protein 5.0 × 10^−9 mol/L), 0.233 ± 0.18 in assay [2] (protein 10.0 × 10^−9 mol/L) and 0.127 ± 0.15 in assay [2] (protein 15.0 × 10^−9 mol/L).

B2: rLZ-8: recombinant ganoderma immunoregulatory protein which is not fused, comparator (protein, UniProt P14945 2-111, looked up)
Immunomodulatory protein Ling …: SDTALIFRLAWDVKKLSFDYTPNWGRGNPNNFIDTVTFPKVLTDKAYTYRVAVSGRNLGVKPSYAVESDGSQKVNFLEYNSGYGIADTNTIQVFVVDPDTNNDFIIAQWN
On to B2, for which the Inhibition rate in assay [1] (high-dosage 1 mg·kg^−1 (LZ-8)) was 45.5% and 43.5%; in assay [1] (setting [3]), 16.8% and 17.8%; in assay [1] (setting [4]) it was 25.7% and 26.7%. The values for the tumor weight in assay [1] (high-dosage 1 mg·kg^−1 (LZ-8)), in assay [1] (setting [3]) and in assay [1] (setting [4]) were 0.57 ± 0.03 g, 0.83 ± 0.03 g and 0.74 ± 0.02 g, respectively. Also, the “OD450, inhibition effect on mouse S180 Ehrlich ascites tumor” value in assay [2] (protein 5.0 × 10^−9 mol/L) was 0.453 ± 0.23; in assay [2] (protein 10.0 × 10^−9 mol/L) it was 0.366 ± 0.31; in assay [2] (protein 15.0 × 10^−9 mol/L), 0.345 ± 0.27.
